These results are taken from US20190218304A1 (INNATE PHARMA, published 2019).

Substitutions are numbered along the chain they refer to.

In one experiment the target is T1, CD39 mutant 15 (human, UniProt P49961 1-510).
T1 construct: Expressed on transfected Hek-293T cells; also called M15
T1 chain: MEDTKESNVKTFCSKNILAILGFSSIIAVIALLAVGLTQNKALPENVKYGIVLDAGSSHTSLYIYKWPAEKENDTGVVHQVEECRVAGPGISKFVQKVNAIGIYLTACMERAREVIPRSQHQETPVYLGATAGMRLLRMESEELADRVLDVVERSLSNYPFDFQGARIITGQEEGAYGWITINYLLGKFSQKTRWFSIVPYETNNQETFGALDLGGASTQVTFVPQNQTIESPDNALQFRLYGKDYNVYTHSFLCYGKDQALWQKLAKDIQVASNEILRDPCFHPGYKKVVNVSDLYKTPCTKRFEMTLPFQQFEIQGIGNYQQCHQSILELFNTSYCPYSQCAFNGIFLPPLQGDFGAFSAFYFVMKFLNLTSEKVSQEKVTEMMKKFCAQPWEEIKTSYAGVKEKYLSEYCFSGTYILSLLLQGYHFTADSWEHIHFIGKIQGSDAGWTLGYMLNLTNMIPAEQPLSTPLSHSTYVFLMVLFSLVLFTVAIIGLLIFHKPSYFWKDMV
As to the kind of experiment: flow cytometry on Hek-293T cells transfected with CD39 mutant 15 [panel M15]. Background: In flow cytometry, cells or beads pass a laser one at a time.

The target in another experiment is T2, CD39 mutant 5 (human, UniProt P49961 1-510).
T2 construct: Expressed on transfected Hek-293T cells; also called M5
T2 chain: T1 chain with A87K, Q96A, N99A, A100E, A107D, E143A, R147E
In words: flow cytometry on Hek-293T cells transfected with CD39 mutant 5 [panel M5].

For the next experiment, the target named is T3, Human CD39-L2 (human, UniProt O75354 61-484, limits assumed).
T3 construct: Recombinant protein coated in ELISA; also called NTPDase6; ENTPD6
T3 sequence: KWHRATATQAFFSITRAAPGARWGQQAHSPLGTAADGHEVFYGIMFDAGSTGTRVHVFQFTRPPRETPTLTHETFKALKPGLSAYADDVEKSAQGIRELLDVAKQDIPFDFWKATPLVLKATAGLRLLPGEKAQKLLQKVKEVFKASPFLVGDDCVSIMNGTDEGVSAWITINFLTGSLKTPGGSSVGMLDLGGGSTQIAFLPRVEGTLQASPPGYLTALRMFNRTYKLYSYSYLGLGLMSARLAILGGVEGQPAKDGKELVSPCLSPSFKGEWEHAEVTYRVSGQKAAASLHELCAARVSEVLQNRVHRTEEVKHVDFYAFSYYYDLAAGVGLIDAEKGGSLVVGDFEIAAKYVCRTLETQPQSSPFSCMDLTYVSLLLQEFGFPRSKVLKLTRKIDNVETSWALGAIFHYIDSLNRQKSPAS
As to the kind of experiment: ELISA on coated recombinant human CD39-L2 [panel huCD39 L2]. As for the experimental part:
Wells were washed in TBS Tween 20, and further saturated 2H at RT in TBS Blocking buffer. Dose range concentration of primary antibody was incubated in TBS blocking buffer for 2 h at RT. Wells were washed in TBS Tween 20. […] Optical density was measured on Enspire™ at OD=450.
A general note: ELISA stands for enzyme-linked immunosorbent assay.

The target of another experiment is T4, CD39 mutant 19 (human, UniProt P49961 1-510).
T4 construct: Expressed on transfected Hek-293T cells; also called M19
T4 chain: T1 chain with A87K, A100E, A107D, R138A, M139A, E142K
As to the kind of experiment: flow cytometry on Hek-293T cells transfected with CD39 mutant 19 [panel M19].

Experiment [1] concerns the target T5, human CD39 expressed on cells (human, UniProt P49961 1-510).
T5 construct: On CHO transfectants, HEK-293T transfectants (wild type), Ramos lymphoma cells or monocyte-derived dendritic cells, as named under assay; also called huCD39; CHO-huCD39
T5 sequence: T1 chain with A87K, A100E, A107D
As to the kind of experiment: flow cytometry on Hek-293T cells transfected with wild-type CD39 (unstained cells, US: 10,3) [panel WT].

B1: antibody I-394 (antibody, human IgG1, kappa, V domains shown)
VH: EVQLQQSGPELVKPGASVKMSCKASGYTFTDYNMHWVKQSHGRTLEWIGYIVPLNGGSTFNQKFKGRATLTVNTSSRTAYMELRSLTSEDSAAYYCARGGTRFAYWGQGTLVTVSA
VL: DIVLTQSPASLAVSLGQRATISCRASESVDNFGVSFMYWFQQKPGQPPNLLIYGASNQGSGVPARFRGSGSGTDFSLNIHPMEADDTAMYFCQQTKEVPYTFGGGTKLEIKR
notes: The hybridoma-derived mouse form was used in early screening
B1: the binding result in the experiment with CD39 mutant 15 was “binds”; in the experiment with CD39 mutant 5, “binds”; with Human CD39-L2, “no binding”; with CD39 mutant 19 it was “no binding”. The “Median : Comp-Alexa Fluor 647-A” value in experiment [1] was determined as 3720.
